The text below walks through data of US20240400675A1 (published 2024).

Residue numbers refer to the chain shown, from its start. Where two headings read alike, the source gives them in different places.

What all share (experiment): flow cytometry, HEK293E cells
A general note: A flow cytometer gives signals particle by particle.

Assay [1] concerns the target T1, human CLDN6 (UniProt P56747 1-220).
T1 chain: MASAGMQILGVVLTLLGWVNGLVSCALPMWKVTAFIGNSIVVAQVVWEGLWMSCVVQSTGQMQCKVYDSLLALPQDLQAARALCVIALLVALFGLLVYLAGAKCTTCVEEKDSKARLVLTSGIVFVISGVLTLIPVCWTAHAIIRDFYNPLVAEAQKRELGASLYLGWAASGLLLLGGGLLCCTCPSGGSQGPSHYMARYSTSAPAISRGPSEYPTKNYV

The target in assay [2] is T2, human CLDN9 (UniProt O95484 1-217).
T2 chain: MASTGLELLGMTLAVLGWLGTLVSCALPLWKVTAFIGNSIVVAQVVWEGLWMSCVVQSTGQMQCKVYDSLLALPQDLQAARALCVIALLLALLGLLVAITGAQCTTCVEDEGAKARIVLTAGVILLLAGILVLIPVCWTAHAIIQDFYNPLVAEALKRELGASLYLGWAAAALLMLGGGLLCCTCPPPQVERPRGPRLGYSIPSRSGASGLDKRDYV

Assay [3] deals with T3, CLDN6 I143V isotype (UniProt P56747 1-220).
T3 chain: T1 chain with I143V

Assay [4] has as its target T1, human CLDN6.
Assay [5] has as its target T4, cyno CLDN6.
T4 chain: T1 chain with Q191R

In assay [6] the target is T5, mouse CLDN6 (mouse, UniProt Q9Z262 1-219).
T5 chain: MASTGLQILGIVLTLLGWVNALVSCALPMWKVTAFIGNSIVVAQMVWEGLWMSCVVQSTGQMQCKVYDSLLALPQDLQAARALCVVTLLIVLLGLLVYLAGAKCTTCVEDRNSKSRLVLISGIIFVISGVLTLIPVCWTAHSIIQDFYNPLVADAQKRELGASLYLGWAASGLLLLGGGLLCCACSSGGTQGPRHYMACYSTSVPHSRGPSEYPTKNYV

For assay [7], the target named is T1, human CLDN6.
Assay [8] addresses T2, human CLDN9.
In assay [9] the target is T3, CLDN6 I143V isotype.
Assay [10] concerns the target T1, human CLDN6.
The target of assay [11] is T4, cyno CLDN6.
Assay [12] deals with T5, mouse CLDN6.

B1: XENP34233 (C6-30_H1L1 x CD3 bsAb in the 2+1 Fab2-scFv-Fc format) (bispecific antibody)
heavy 1: QVQLVQSGAEVKKPGASVKVSCKTSGYTFTEYTMHWVRQAPGQSLEWMGGIDPNNGNTHYNQKFQGRVTITVDKSASTAYMELSSLRSEDTAVYYCARIYYFGRLYFDFWGAGTLVTVSSASTKGPSVFPLAPSSKSTSGGTAALGCLVKDYFPEPVTVSWNSGALTSGVHTFPAVLQSSGLYSLSSVVTVPSSSLGTQTYICNVNHKPSDTKVDKKVEPKSCDKTHTCPPCPAPPVAGPSVFLFPPKPKDTLMISRTPEVTCVVVDVKHEDPEVKFNWYVDGVEVHNAKTKPREEEYNSTYRVVSVLTVLHQDWLNGKEYKCKVSNKALPAPIEKTISKAKGQPREPQVYTLPPSREEMTKNQVSLTCDVSGFYPSDIAVEWESDGQPENNYKTTPPVLDSDGSFFLYSKLTVDKSRWEQGDVFSCSVMHEALHNHYTQKSLSLSPGK
heavy 2: QVQLVQSGAEVKKPGASVKVSCKTSGYTFTEYTMHWVRQAPGQSLEWMGGIDPNNGNTHYNQKFQGRVTITVDKSASTAYMELSSLRSEDTAVYYCARIYYFGRLYFDFWGAGTLVTVSSASTKGPSVFPLAPSSKSTSGGTAALGCLVKDYFPEPVTVSWNSGALTSGVHTFPAVLQSSGLYSLSSVVTVPSSSLGTQTYICNVNHKPSNTKVDKKVEPKSCGGGGSGGGGSQAVVTQEPSLTVSPGGTVTLTCGSSTGAVTTSNYANWVQQKPGKSPRGLIGGTNKRAPGVPARFSGSLLGGKAALTISGAQPEDEADYYCALWYSNHWVFGGGTKLTVLGKPGSGKPGSGKPGSGKPGSEVQLVESGGGLVQPGGSLRLSCAASGFTFSTYAMNWVRQAPGKGLEWVGRIRSKYNNYATYYADSVKGRFTISRDDSKNTLYLQMNSLRAEDTAVYYCVRHGNFGDSYVSWFAYWGQGTLVTVSSGGGGSGGGGSKTHTCPPCPAPPVAGPSVFLFPPKPKDTLMISRTPEVTCVVVDVKHEDPEVKFNWYVDGVEVHNAKTKPREEQYNSTYRVVSVLTVLHQDWLNGKEYKCKVSNKALPAPIEKTISKAKGQPREPQVYTLPPSREQMTKNQVKLTCLVKGFYPSDIAVEWESNGQPENNYKTTPPVLDSDGSFFLYSKLTVDKSRWQQGNVFSCSVMHEALHNHYTQKSLSLSPGK
light: not shown
For the molecule B1, the EC50 with human CLDN6 [1] came to 0.359 µg/mL; with human CLDN9 [2], 6.73 µg/mL; with CLDN6 I143V isotype [3] it was 0.329 µg/mL; with human CLDN6 [4] it was 0.224 µg/mL; with cyno CLDN6 [5], 0.316 µg/mL; with mouse CLDN6 [6], 0.664 µg/mL.

B2: XENP34229 (C6-30_H1L1 x CD3 bsAb in the 1+1 Fab-scFv-Fc format) (bispecific antibody)
heavy: B1 heavy 1
scFv-Fc: QAVVTQEPSLTVSPGGTVTLTCGSSTGAVTTSNYANWVQQKPGKSPRGLIGGTNKRAPGVPARFSGSLLGGKAALTISGAQPEDEADYYCALWYSNHWVFGGGTKLTVLGKPGSGKPGSGKPGSGKPGSEVQLVESGGGLVQPGGSLRLSCAASGFTFSTYAMNWVRQAPGKGLEWVGRIRSKYNNYATYYADSVKGRFTISRDDSKNTLYLQMNSLRAEDTAVYYCVRHGNFGDSYVSWFAYWGQGTLVTVSSEPKSSDKTHTCPPCPAPPVAGPSVFLFPPKPKDTLMISRTPEVTCVVVDVKHEDPEVKFNWYVDGVEVHNAKTKPREEQYNSTYRVVSVLTVLHQDWLNGKEYKCKVSNKALPAPIEKTISKAKGQPREPQVYTLPPSREQMTKNQVKLTCLVKGFYPSDIAVEWESNGQPENNYKTTPPVLDSDGSFFLYSKLTVDKSRWQQGNVFSCSVMHEALHNHYTQKSLSLSPGK
light: not shown
Take B2: the EC50 came out at 6.49 µg/mL with human CLDN6 [1]; 78.8 µg/mL with human CLDN9 [2]; 5.58 µg/mL in the assay with CLDN6 I143V isotype [3]; 3.48 µg/mL with human CLDN6 [4]; 5.65 µg/mL with cyno CLDN6 [5]; 12 µg/mL with mouse CLDN6 [6].

B3: XENP34637 (C6-30_H2L1 x CD3 bsAb in the 1+1 Fab-scFv-Fc format) (bispecific antibody)
heavy: EVQLVQSGAEVKKPGESLRISCKTSGYTFTEYTMHWVRQMPGKSLEWMGGIDPNNGNTHYNQKFQGHVTISVDKSISTAYLQWSSLKASDTAMYYCARIYYFGRLYFDFWGAGTLVTVSSASTKGPSVFPLAPSSKSTSGGTAALGCLVKDYFPEPVTVSWNSGALTSGVHTFPAVLQSSGLYSLSSVVTVPSSSLGTQTYICNVNHKPSDTKVDKKVEPKSCDKTHTCPPCPAPPVAGPSVFLFPPKPKDTLMISRTPEVTCVVVDVKHEDPEVKFNWYVDGVEVHNAKTKPREEEYNSTYRVVSVLTVLHQDWLNGKEYKCKVSNKALPAPIEKTISKAKGQPREPQVYTLPPSREEMTKNQVSLTCDVSGFYPSDIAVEWESDGQPENNYKTTPPVLDSDGSFFLYSKLTVDKSRWEQGDVFSCSVMHEALHNHYTQKSLSLSPGK
scFv-Fc: not shown
light: not shown
As to B3, the EC50 came out at 20.6 µg/mL in the assay with human CLDN6 [7]; 137 µg/mL with human CLDN9 [8]; 12.9 µg/mL with CLDN6 I143V isotype [9]; 2.38 µg/mL with human CLDN6 [10]; 3.19 µg/mL in the assay with cyno CLDN6 [11]; 6.71 µg/mL with mouse CLDN6 [12].

B4: XENP34638 (C6-30_H2L1 x CD3 bsAb in the 2+1 Fab2-scFv-Fc format) (bispecific antibody)
heavy 1: B3 heavy
heavy 2: EVQLVQSGAEVKKPGESLRISCKTSGYTFTEYTMHWVRQMPGKSLEWMGGIDPNNGNTHYNQKFQGHVTISVDKSISTAYLQWSSLKASDTAMYYCARIYYFGRLYFDFWGAGTLVTVSSASTKGPSVFPLAPSSKSTSGGTAALGCLVKDYFPEPVTVSWNSGALTSGVHTFPAVLQSSGLYSLSSVVTVPSSSLGTQTYICNVNHKPSNTKVDKKVEPKSCGGGGSGGGGSQAVVTQEPSLTVSPGGTVTLTCGSSTGAVTTSNYANWVQQKPGKSPRGLIGGTNKRAPGVPARFSGSLLGGKAALTISGAQPEDEADYYCALWYSNHWVFGGGTKLTVLGKPGSGKPGSGKPGSGKPGSEVQLVESGGGLVQPGGSLRLSCAASGFTFSTYAMNWVRQAPGKGLEWVGRIRSKYNNYATYYADSVKGRFTISRDDSKNTLYLQMNSLRAEDTAVYYCVRHGNFGDSYVSWFAYWGQGTLVTVSSGGGGSGGGGSKTHTCPPCPAPPVAGPSVFLFPPKPKDTLMISRTPEVTCVVVDVKHEDPEVKFNWYVDGVEVHNAKTKPREEQYNSTYRVVSVLTVLHQDWLNGKEYKCKVSNKALPAPIEKTISKAKGQPREPQVYTLPPSREQMTKNQVKLTCLVKGFYPSDIAVEWESNGQPENNYKTTPPVLDSDGSFFLYSKLTVDKSRWQQGNVFSCSVMHEALHNHYTQKSLSLSPGK
light: not shown
For B4, the EC50 with human CLDN6 [7] came out at 0.435 µg/mL; in the assay with human CLDN9 [8] it was 11.2 µg/mL; in the assay with CLDN6 I143V isotype [9] it was 0.2 µg/mL; with human CLDN6 [10], 0.244 µg/mL; with cyno CLDN6 [11], 0.267 µg/mL; with mouse CLDN6 [12], 0.588 µg/mL.

What is called EC50 is the concentration at which the effect is half-maximal.
